In US20180312587A1 (ADURO BIOTECH HOLDINGS EUROPE B V, published 2018):

Legend:
human SIRPβ1 = biological target: T1, human SIRPβ1 (human, UniProt O00241 30-398); experiment: CELISA, CHO-K1 transfectants
T1 construct: also called hSIRPβ1
Method: (§1) The specificity of monoclonal anti-hSIRPα antibodies (e.g., including the hSIRPα antibodies known in the art, KWAR23 ([…]. Patent CA2939293 A1), 18D5 (Patent WO2017/178653 A2), and various commercially available hSIRPα antibodies) for binding to hSIRPαV1, hSIRPαV1(P74A), and hSIRPβ1 was evaluated by CELISA. Reactivity was confirmed using CHO-K1 cells (ATCC CCL-61) expressing a cDNA encoding the full length open reading frame of hSIRPαV1, hSIRPαV1(P74A), and hSIRPβ1 subcloned into the pCI-neo vector (Promega, Madison, Wis.). CHO-K1.hSIRPαV1, CHO-K1.hSIRPαV1(P74A), and CHO-K1.hSIRPβ1 cells were seeded in culture medium (DMEM-F12 (Gibco) supplemented with 5% New Born Calf Serum (BioWest) and Pen/Strep (Gibco)) in 96-well flat-bottom tissue culture plates and incubated at 37° C., 5% CO₂ and 95% humidity for 24 hours. Subsequently, culture medium was removed and cells were incubated for 1 hour at 37° C., 5% CO₂ and 95% humidity with purified hSIRPα antibodies (used at 10 μg/ml and dilutions thereof). Next, cells were washed with PBS-T and incubated for 1 hour at 37° C., 5% CO₂ and 95% humidity with either goat-anti-mouse IgG-HRP (Southern Biotech), goat-anti-human IgG-HRP (Jackson Immuno Research), or goat-anti-rabbit IgG-HRP (Southern Biotech). Subsequently, cells were washed three times with PBS-T and immunoreactivity against hSIRPαV1, hSIRPαV1(P74A), and hSIRPβ1 was visualized with TMB Stabilized Chromogen (Invitrogen). Reactions were stopped with 0.5 M H₂SO₄ and absorbances were read at 450 and 610 nm.

hSIRPαV1(P74A) = biological target: T2, hSIRPαV1(P74A) (human, UniProt P78324 31-504); experiment: CELISA, CHO-K1 transfectants
T2 construct: also called P74A variant of hSIRPαV1
T2 sequence (P78324 31-504 P74A limits assumed): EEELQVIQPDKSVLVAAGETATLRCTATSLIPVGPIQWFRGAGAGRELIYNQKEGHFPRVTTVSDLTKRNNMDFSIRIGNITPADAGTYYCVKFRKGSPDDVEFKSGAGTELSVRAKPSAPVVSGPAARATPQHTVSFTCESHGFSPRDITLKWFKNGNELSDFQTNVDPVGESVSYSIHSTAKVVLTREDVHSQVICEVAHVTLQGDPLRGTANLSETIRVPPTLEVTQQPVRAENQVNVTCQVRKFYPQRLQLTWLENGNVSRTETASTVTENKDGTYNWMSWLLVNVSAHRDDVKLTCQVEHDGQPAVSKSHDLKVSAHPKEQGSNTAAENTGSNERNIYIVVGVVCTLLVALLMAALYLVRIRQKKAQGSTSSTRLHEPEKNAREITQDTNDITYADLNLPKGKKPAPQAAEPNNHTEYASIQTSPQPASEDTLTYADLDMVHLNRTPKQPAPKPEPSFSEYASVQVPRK
Method: as §1

[1] = biological target: T3, hSIRPα expressed on primary human cells (human, UniProt P78324 31-504); experiment: flow cytometry on primary human granulocytes, FITC goat-anti-mouse Ig
T3 construct: whole, on cells; also called hSIRPα on primary human CD14+ monocytes; on primary human granulocytes
T3 sequence (P78324 31-504): as the sequence (P78324 31-504 P74A limits assumed) above, with A44P counted along it
Method: To confirm the functionality of hSIRPα.50A in primary immune cells, granulocytes (e.g. effector cells) were isolated from healthy human donor EDTA blood. First, the EDTA blood of each donor was pooled and centrifuged at 300 g for 6 minutes at 20° C. Next, plasma was removed by aspiration, and the remaining blood cells were gently resuspended. Cells were recovered in red blood cell (RBC) lysis buffer (155 mM NH4Cl; 10 mM KHCO3) and incubated for 10 minutes on ice. Next, cells were centrifuged at 300 g for 7 minutes. Supernatants containing lysed RBCs were removed by aspiration, and the remaining blood cells were gently resuspended in RBC lysis buffer and kept on ice for 1 minute. […] The percentage of granulocytes present in the cell suspension was determined by flow cytometry on the FACSCanto II (BD Biosciences) based on high forward scatter (FSC) and side scatter (SSC). Binding of hSIRPα.50A to human granulocytes was assessed by incubating the cells for 30 minutes at 4° C. with hSIRPα.50A antibody (25 μg/mL and dilutions thereof) in PBS/1% BSA containing 10% autologous serum (PBS/1% BSA/10% serum). […] After this labeling procedure, cells were washed two times, resuspended in PBS/1% BSA/10% serum and analysed by flow cytometry on the FACSCanto II (BD Biosciences). Data were processed and analysed with FlowJo V10 software (FlowJo, LLC).

[2] = biological target: T3, hSIRPα expressed on primary human cells; experiment: flow cytometry, blockade of DyLight488-hCD47/Fc binding to CD14+ enriched monocytes, donor 2
Method: To assess the blocking ability of hSIRPα.50A, CD14+ enriched monocytes cells were seeded in 96-well round bottomed tissue culture plates and incubated for 45 minutes with FcR Blocking Reagent (Miltenyi Biotec) and hSIRPα.50A antibody (200 μg/mL and dilutions thereof) in PBS/1% BSA at 4° C. […] After this labeling procedure, cells were washed two times, resuspended in PBS/1% BSA containing 0.1 μg/mL DAPI (BioLegend), and analysed by flow cytometry on the FACSVerse (BD Biosciences). Data were processed and analysed with FlowJo V10 software (FlowJo, LLC). […] IC50 values represent the concentration at which half of the inhibition is observed.

T1 sequence (O00241 30-398 limits assumed): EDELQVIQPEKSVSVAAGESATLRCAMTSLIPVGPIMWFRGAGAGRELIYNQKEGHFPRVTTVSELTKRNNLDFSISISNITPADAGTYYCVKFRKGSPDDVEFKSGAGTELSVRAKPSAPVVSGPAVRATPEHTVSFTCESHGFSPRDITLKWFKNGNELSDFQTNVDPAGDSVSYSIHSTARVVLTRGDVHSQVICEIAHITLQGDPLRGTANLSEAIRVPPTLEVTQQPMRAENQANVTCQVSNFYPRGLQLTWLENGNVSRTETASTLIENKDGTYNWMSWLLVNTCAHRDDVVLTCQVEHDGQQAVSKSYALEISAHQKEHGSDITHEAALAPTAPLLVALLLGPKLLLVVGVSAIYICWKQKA

EC50 (human SIRPβ1)	EC50 (hSIRPαV1(P74A))	EC50 (read off the curve) [1]	IC50 [2]	Binder
65 pM	77 pM			KWAR23 (antibody, V domains shown) VH: EVQLQQSGAELVKPGASVKLSCTASGFNIKDYYIHWVQQRTEQGLEWIGRIDPEDGETKYAPKFQDKATITADTSSNTAYLHLSSLTSEDTAVYYCARWGAYWGQGTLVTVSS VL: QIVLTQSPAIMSASPGEKVTLTCSASSSVSSSYLYWYQQKPGSSPKLWIYSTSNLASGVPARFSGSGSGTSYSLTISSMEAEDAASYFCHQWSSYPRTFGAGTKLELK
		~3000 pM	1040 pM	hSIRPα.50A (antibody, V domains shown, light chain constant domain not tied; also called mouse hSIRPα.50A; hSIRPα.50A.mIgG1) VH: QVQLQQSGPELVKPGASVRISCKASGFTFTNYYIHWVKQRPGQGLEWIGWIYPGNVNTKYNEKFKAKATLTADKSSTTAYMQLSSLASEDSAVYFCARPTIIATDFDVWGAGTTVTVSS VL: DIVMTQSHKFMSTSVGDRVNITCKASQGVGTAVGWYQQKPGQSPRLLIYWASTRHTGVPDRFTGSGSGTDFSLAISNVQSEDLADYFCQQYSTYPFTFGGGTNLEIK
